Data published in patent publication US20050186593A1 (SALK INSTITUTE FOR BIOLOGICAL STUDIES, published 2005).
Values belong to the molecule of their own block, whether it stands above or below them.

Experiments:
[1] = biological target: Xenopus activin receptor xActRIIB, expressed in Xenopus embryos from injected synthetic RNA (Xenopus) (UniProt P27041); experiment: cell-based or functional assay
[2] = biological target: T1, Mouse activin receptor, full length (encoded by clone pmActR2), expressed on transfected COS cells (mouse, UniProt P27038 20-513); experiment: competition with 125I activin A on COS cells transfected with pmActR2
T1 construct: also called mActRII; ActRII
Method: (§1) 10⁵ COS cells transfected with either pmActR1 or pmActR2, or 10⁶ untransfected COS cells, were plated in 6 well dishes and allowed to grow overnight. The cells were washed 2× with HDB, 0.1% BSA, and incubated at 22° for 90 minutes in 0.5 ml HDB, 0.1% BSA containing 100,000 cpm (approximately 1 ng, 75 pM) ¹²⁵I activin A (5 μg activin A was iodinated by chloramine T oxidation to a specific activity of 50-90 μCi/μg; iodinated activin A was purified on a 0.7×20 cm G-25 column) and varying amounts of unlabeled competitor hormone. Following binding, the cells were washed 3× with cold HDB, solubilized in 0.5 ml 0.5 N NaOH, removed from the dish and radioactivity was measured in a gamma counter. Data presented in FIG. 5 are expressed as % specific binding, where 100% specific binding is the difference between binding in the absence of competitor and binding in the presence of a 100 fold molar excess of unlabeled activin A. Binding parameters were determined using the program LIGAND [Munson P. J. and Rodbard, D., Anal. Biochem. 107:220-259 (1980)].
This affinity and specificity of binding match those observed following binding of activin A to a number of other activin-responsive cell types. […]

[3] = biological target: T2, Mouse activin receptor, C-terminally truncated (encoded by clone pmActR1), expressed on transfected COS cells (mouse, UniProt P27038 20-354); experiment: 125I activin A competition radioreceptor assay on COS cells transfected with pmActR1; Scatchard/LIGAND
T2 construct: pmActR1 codes for a protein of 342 amino acids, the last 17 of them from the vector; It lacks a complete intracellular kinase domain; the real chain is truncated and its signal peptide (1-19) is removed
Method: as §1
(§2) To verify that the cloned receptor is activin specific, competition binding experiments were performed on COS cells transiently transfected with either pmActR1 or pmActR2. […] This binding affinity is consistent with that measured on other activin-responsive cell types [see, for example, Campen, C. A. and Vale, W., Biochem. Biophys. Res. Comm. […]

[4] = biological target: T1, Mouse activin receptor, full length …; experiment: 125I activin A competition radioreceptor assay on COS cells transfected with pmActR2; LIGAND
Method: as §1, §2

T1 sequence (P27038 20-513): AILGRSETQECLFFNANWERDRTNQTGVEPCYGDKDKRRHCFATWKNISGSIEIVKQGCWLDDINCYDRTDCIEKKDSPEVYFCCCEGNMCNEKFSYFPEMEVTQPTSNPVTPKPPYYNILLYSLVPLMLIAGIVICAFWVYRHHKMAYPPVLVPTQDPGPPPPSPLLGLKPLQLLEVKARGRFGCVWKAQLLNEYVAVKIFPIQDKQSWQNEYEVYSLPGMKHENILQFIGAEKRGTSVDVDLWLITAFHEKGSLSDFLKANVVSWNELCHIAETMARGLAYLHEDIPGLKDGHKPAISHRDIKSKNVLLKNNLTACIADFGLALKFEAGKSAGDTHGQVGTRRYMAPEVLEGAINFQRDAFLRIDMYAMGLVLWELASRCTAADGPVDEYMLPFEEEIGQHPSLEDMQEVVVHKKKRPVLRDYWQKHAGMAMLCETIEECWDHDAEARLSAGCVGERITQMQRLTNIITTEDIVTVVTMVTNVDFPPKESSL
Chain of Xenopus activin receptor xActRIIB, expressed in Xenopus embryos from injected synthetic RNA (Xenopus) (P27041 other isoform, or with tags, fused parts or gaps): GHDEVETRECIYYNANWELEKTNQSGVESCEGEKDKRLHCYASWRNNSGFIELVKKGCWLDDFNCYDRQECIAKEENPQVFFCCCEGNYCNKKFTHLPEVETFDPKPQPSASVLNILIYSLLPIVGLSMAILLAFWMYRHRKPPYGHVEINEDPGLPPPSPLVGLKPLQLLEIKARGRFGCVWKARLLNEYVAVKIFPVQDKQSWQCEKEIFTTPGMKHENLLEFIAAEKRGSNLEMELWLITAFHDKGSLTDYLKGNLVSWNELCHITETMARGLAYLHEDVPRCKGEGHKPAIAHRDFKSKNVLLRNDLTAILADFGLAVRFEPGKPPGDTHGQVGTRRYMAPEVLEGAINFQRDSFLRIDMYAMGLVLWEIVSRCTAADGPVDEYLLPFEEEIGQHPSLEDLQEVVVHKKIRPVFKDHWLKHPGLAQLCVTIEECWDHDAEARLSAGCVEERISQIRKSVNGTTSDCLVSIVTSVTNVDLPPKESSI
T2 sequence (P27038 20-354 limits assumed, form in doubt): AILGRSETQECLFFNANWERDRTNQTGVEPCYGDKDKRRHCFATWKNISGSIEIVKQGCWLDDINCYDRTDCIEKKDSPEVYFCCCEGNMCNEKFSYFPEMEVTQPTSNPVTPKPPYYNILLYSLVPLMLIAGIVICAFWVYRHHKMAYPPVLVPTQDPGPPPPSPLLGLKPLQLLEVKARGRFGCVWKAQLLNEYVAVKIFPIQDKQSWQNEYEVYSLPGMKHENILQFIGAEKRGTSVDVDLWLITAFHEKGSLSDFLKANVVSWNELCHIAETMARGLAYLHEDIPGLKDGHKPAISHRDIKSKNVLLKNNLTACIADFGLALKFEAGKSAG

Molecule: Purified porcine activin A (from UniProt P03970 309-424) (ligand)
muscle-specific actin RNA in animal caps (ribonuclease protection assay); sensitivity to activin against control embryos, embryos injected with 0.4 ng xActRIIB RNA [1]: 10 fold
muscle-specific actin RNA in animal caps (ribonuclease protection assay); sensitivity to activin against control embryos, embryos injected with 2.0 ng xActRIIB RNA [1]: 100 fold

B2: Recombinant human (rh) activin A (ligand, UniProt P08476 311-426, looked up)
chain: GLECDGKVNICCKKQFFVSFKDIGWNDWIIAPSGYHANYCEGECPSHIAGTSGSSLSFHSTVINHYRMRGHSPFANLKSCCVPTKLRPMSMLYYDDGQNIIKKDIQNMIVEECGCS
notes: also called 125I activin A; iodinated activin A
Kd [3]: 0.18 nM
Kd [4]: 0.18 nM

Second part, the molecule after the results:

fold lower potency than activin A in competition [2]: ~10 fold
B1: Recombinant human (rh) inhibin A (ligand)
chain 1: STPLMSWPWSPSALRLLQRPPEEPAAHANCHRVALNISFQELGWERWIVYPPSFIFHYCHGGCGLHIPPNLSLPVPGAPPTPAQPYSLLPGAQPCCAALPGTMRPLHVRTTSDGGYSFKYETVPNLLTQHCACI
chain 2: GLECDGKVNICCKKQFFVSFKDIGWNDWIIAPSGYHANYCEGECPSHIAGTSGSSLSFHSTVINHYRMRGHSPFANLKSCCVPTKLRPMSMLYYDDGQNIIKKDIQNMIVEECGCS

binding result [2]: binds
B3: Recombinant human (rh) activin B (ligand, UniProt P09529 293-407, looked up)
chain: GLECDGRTNLCCRQQFFIDFRLIGWNDWIIAPTGYYGNYCEGSCPAYLAGVPGSASSFHTAVVNQYRMRGLNPGTVNSCCIPTKLSTMSMLYFDDEYNIVKRDVPNMIVEECGCA
